Experimental data: PMC7373347 (Current protocols in cell biology, 2020)
Like-named read-outs stand apart in the source and are kept apart here.

B1: human DHHC15 (Palmitoyl Acyl Transferase, hDHHC15) fused to mVenus (enzyme, UniProt Q96MV8 1-337, looked up)
chain: MRRGWKMALSGGLRCCRRVLSWVPVLVIVLVVLWSYYAYVFELCLVTVLSPAEKVIYLILYHAIFVFFTWTYWKSIFTLPQQPNQKFHLSYTDKERYENEERPEVQKQMLVDMAKKLPVYTRTGSGAVRFCDRCHLIKPDRCHHCSVCAMCVLKMDHHCPWVNNCIGFSNYKFFLQFLAYSVLYCLYIATTVFSYFIKYWRGELPSVRSKFHVLFLLFVACMFFVSLVILFGYHCWLVSRNKTTLEAFCTPVFTSGPEKNGFNLGFIKNIQQVFGDKKKFWLIPIGSSPGDGHSFPMRSMNESQNPLLANEETWEDNEDDNQDYPEGSSSLAVETET
B2: human DHHC15 (Palmitoyl Acyl Transferase, hDHHC15), purified, tag cleaved (enzyme, UniProt Q96MV8 1-337, looked up)
chain: B1 chain

Legend:
SEC [1] = molecular target: the molecule itself; assay: SEC
SEC [2] = molecular target: the molecule itself; assay: SEC; remark: listed apart in the source

| Protein | stoichiometry N (SEC [1]) | stoichiometry N (SEC [2]) |
| --- | --- | --- |
| B1 | 2 |  |
| B2 |  | 2 |
